The experiment concerns the target T1, human Kir2.1 channel, wild type (Kir2.1-WT) (human), P63252.
T1 chain: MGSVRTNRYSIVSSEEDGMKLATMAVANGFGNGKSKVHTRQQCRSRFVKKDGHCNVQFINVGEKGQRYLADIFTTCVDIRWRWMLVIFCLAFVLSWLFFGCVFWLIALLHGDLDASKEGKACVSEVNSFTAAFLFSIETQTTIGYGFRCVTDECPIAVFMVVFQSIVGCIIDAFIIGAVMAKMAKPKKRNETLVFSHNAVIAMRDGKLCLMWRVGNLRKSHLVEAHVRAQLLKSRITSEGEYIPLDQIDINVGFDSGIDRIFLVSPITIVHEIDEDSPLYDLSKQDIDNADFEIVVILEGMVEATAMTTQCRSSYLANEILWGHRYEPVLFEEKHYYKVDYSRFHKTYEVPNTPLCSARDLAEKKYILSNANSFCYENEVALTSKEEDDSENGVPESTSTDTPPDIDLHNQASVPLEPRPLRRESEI
Briefly: SEC-MALLS. To be noted: remark: other sources report otherwise.

The term stoichiometry N denotes a count of units in the complex or per binding partner.

B1: human Kir2.1 channel, wild type (Kir2.1-WT), P63252 1-427 (natural protein)
chain: T1 chain
The molecule B1 returned a stoichiometry N of 4.

For the origin of these results see paper doi:10.1101/2024.02.09.579451.
